Measured values from patent US20180143213A1.

Experiments:
[1] = molecular target: beta2-adrenergic receptor-luciferase fusion protein (human); test: bridge assay (Example 4A), sc-569 at 5 ng/ml in buffer
[2] = molecular target: beta2-adrenergic receptor-luciferase fusion protein (human); test: bridge assay (Example 4A), sc-569 at 2000 ng/ml in buffer
[3] = molecular target: beta2-adrenergic receptor-luciferase fusion protein (human); test: bridge assay (Example 4A), sc-569 at 5000 ng/ml in buffer
[4] = molecular target: beta2-adrenergic receptor-luciferase fusion protein (human); test: bridge assay (Example 4A), sc-569 at 1000 ng/ml in buffer
[5] = molecular target: beta2-adrenergic receptor-luciferase fusion protein (human); test: bridge assay (Example 4A), sc-569 at 2 ng/ml in buffer
[6] = molecular target: beta2-adrenergic receptor-luciferase fusion protein (human); test: bridge assay (Example 4A), sc-569 at 200 ng/ml in buffer
[7] = molecular target: beta2-adrenergic receptor-luciferase fusion protein (human); test: bridge assay (Example 4A), sc-569 at 10000 ng/ml in buffer
[8] = molecular target: beta2-adrenergic receptor-luciferase fusion protein (human); test: bridge assay (Example 4A), sc-569 at 20000 ng/ml in buffer
[9] = molecular target: beta2-adrenergic receptor-luciferase fusion protein (human); test: bridge assay (Example 4A), sc-569 at 1 ng/ml in buffer
[10] = molecular target: beta2-adrenergic receptor-luciferase fusion protein (human); test: bridge assay (Example 4A), sc-569 at 500 ng/ml in buffer
[11] = molecular target: beta2-adrenergic receptor-luciferase fusion protein (human); test: bridge assay (Example 4A), sc-569 at 20 ng/ml in buffer
[12] = molecular target: beta2-adrenergic receptor-luciferase fusion protein (human); test: bridge assay (Example 4A), sc-569 at 50 ng/ml in buffer
[13] = molecular target: beta2-adrenergic receptor-luciferase fusion protein (human); test: bridge assay (Example 4A), sc-569 at 100 ng/ml in buffer
[14] = molecular target: beta2-adrenergic receptor-luciferase fusion protein (human); test: bridge assay (Example 4A), sc-569 at 10 ng/ml in buffer

RLU [1]: 28100 RLU | RLU [2]: 948000 RLU | RLU [3]: 1.71e+06 RLU | RLU [4]: 558000 RLU | RLU [5]: 25800 RLU | RLU [6]: 187000 RLU | RLU [7]: 2.39e+06 RLU | RLU [8]: 2.87e+06 RLU | RLU [9]: 24400 RLU | RLU [10]: 392000 RLU | RLU [11]: 45100 RLU | RLU [12]: 76000 RLU | RLU [13]: 93900 RLU | RLU [14]: 33400 RLU
Substance: Antibodies against B2 (sc-569 Santa Cruz, Calif., USA) (antibody)
